Publication PMC4070910, “Cathepsin S Signals via PAR2 and Generates a Novel Tethered Ligand Receptor Agonist” (PLoS ONE, 2014)
“Also recorded” adds a separate entry of the source.

Key:
[1] = cited from earlier work
Source text: To better understand the mechanisms of PAR2 activation and regulation, we sought to identify cleavage sites and downstream signaling events induced by an endogenous cysteine protease, cathepsin S. Cysteine cathepsins, including cathepsin S, have been broadly implicated in health and disease including inflammation, cardiovascular and pulmonary disease, obsesity, itch and pain[15]. […] Cathepsin S is expressed in many types of cells. […] The KVDGTS sequence is preceded by LIG, placing G^40 in the P1 postion and L^38 in the P3 postion. The finding of cleavage after glycine is consistent with what is reported in the MEROPS database and a recent report on proteomic identification of protease cleavage sites (PICS)[25]. These reports reveal that cleavage after leucine at P3 is associated with cathepsin S, but less so than with glycine at P1. Correlations were otherwise weak between these reports and the cleavage sites identified here. Cathep ...

[2] = tested on: luciferase-PAR2M2 (glycine40 to alanine); test: Gaussia luciferase release, luciferase-PAR2M2; type: cell-based, human; settings: cathepsin S 2 µM, 10 minutes, room temperature, triplicate
Source text: Gaussia luciferase cDNA was cloned, without its termination codon, into pcDNA3.1(−) as an Xho I-EcoR I fragment. Human PAR2 cDNA and its mutants, M1, M2 and M3, were generated using PCR primers designed to start after the signal sequence and end with a termination codon: […] and […] . The PCR amplified cDNAs were cloned into EcoR I and Hind III sites C-terminal to Gaussia luciferase cDNA. The resulting plasmids were called pGLPAR2, pGLPAR2M1, pGLPAR2M2 and pGLPAR2M3.
The QuickChange site-directed mutagenesis procedure (Agilent Technologies, Santa Clara, CA) was used to generate PAR2 N-terminal mutants. PAR2M1, with a single amino acid change, was created by substituting the leucine^38 codon, CTT, with alanine, GCT, using the primers: PAR2M1F, […], and PAR2M1R, […]. […]
The plasmid DNAs pGLPAR2, pGLPAR2M1, pGLPAR2M2 and pGLPAR2M3 (10 µg of each) were transfected into 2×10^6 HeLa cells as described above and plated into 10 cm dishes. […] Cells were scraped in order to eliminate the use of trypsin, which could activate PARs, and allowed for the luminescence assay to be performed in a small volume. […] Luminescence assays were performed in triplicate on 50 µl of the supernatants according to the instructions of the manufacturer (New England Biolabs, Ipswich, MA).

[3] = tested on: PAR2M3 (leucine38 and glycine40 to alanines); test: Calcium imaging in HeLa cells transfected with PAR2M3; type: cell-based, human; settings: cathepsin S 2 µM, KVDGTS 100 µM
Description: Human PAR2 cDNA was cloned as an Xho I-Hind III fragment (1206 bp) into pcDNA3.1(−). 10 µg of DNA were diluted into 0.5 ml of DMEM and mixed with 0.5 ml of DMEM containing 10 µl of Lipofectamine 2000 transfection reagent and incubated at room temperature for 20 minutes. HeLa cells were grown to confluence, trypsinized and 1×10^6 cells were pelleted in a 15 ml tube by centrifugation at 1000 rpm for 5 minutes. The DMEM-Lipofectamine 2000-DNA mixture (1 ml) was added to the cell pellet, resuspended gently and incubated at room temperature for 20 minutes. Four ml of complete DMEM with 10% FBS were added to the tube, mixed by inverting the tube several times, plated into a 96-well glass bottom plate at 20,000 cells/well, and placed in a 37°C CO2 incubator. HeLa cells transfected with vector alone or salmon sperm DNA (shown in the figures) were plated as a control. The medium was aspirated two days after transfection. Fura-2 was used as a ratiometric calcium-sensitive indicator as follows. […]
Imaging was performed using a Zeiss Axiovert 200 M microscope platform equipped with a flipping filter wheel for ratiometric imaging. […] The software later analyzed all images taken during each excitation period. Typically, ratiometric changes were measured in 10–20 cells in each image. An average of the fluorescence of the cells in each image was calculated and plotted against time in seconds. […]

B1: cathepsin S: Recombinant human cathepsin S, cysteine protease, expressed in E.coli, refolded and activated (protein, UniProt P25774 115-331, looked up)
Cathepsin S: LPDSVDWREKGCVTEVKYQGSCGACWAFSAVGALEAQLKLKTGKLVSLSAQNLVDCSTEKYGNKGCNGGFMTTAFQYIIDNKGIDSDASYPYKAMDQKCQYDSKYRAATCSKYTELPYGREDVLKEAVANKGPVSVGVDARHPSFFLYRSGVYYEPSCTQNVNHGVLVVGYGDLNGKEYWLVKNSWGHNFGEEGYIRMARNKGNHCGIASFPSYPEI
cleavage after alanine (in words) ([1]; PICS report): rarely cleaves after alanine | elastase activity and Ii chain cleavage (in words) [1]: potent elastase; also recorded: cleaves the Ii chain | pH dependence of activity (in words) [1]: active at neutral pH | receptor cleavage, luciferase luminescence (in words) [2]: did not cleave PAR2M2 or PAR2M3 | calcium response on PAR2M3 (in words) [3]: did not induce calcium responses; also recorded: not PAR2M2 or PAR2M3
